The series has as its target ZBTB7A ZF1-4 (370-500) pXC2222 (Homo sapiens, UniProt O95365 370-500). Kind of series: X-ray crystallography.

Chain of ZBTB7A ZF1-4 (370-500) pXC2222 (O95365 370-500): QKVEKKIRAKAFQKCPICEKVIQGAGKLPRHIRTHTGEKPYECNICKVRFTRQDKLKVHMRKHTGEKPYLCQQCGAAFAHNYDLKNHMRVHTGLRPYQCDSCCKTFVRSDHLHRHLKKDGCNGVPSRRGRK

B1: 7N5T oligo (dsDNA)
DNA 1: AGGCCCCTTCCCCAC
DNA 2: TGTGGGGAAGGGGCC
In the case of B1, the binding result is reported as “binds”.

B2: 7N5S oligo (dsDNA)
DNA 1: GGGGCCCCTTCCCCA
DNA 2: CTGGGGAAGGGGCCC
Consider B2, for which the binding result was “binds”.

For the origin of these results see PMC8553545.
